The values below come from patent US20130331552A1.

In the test the target is recombinant influenza HA3-protein (from H3N2, Wyoming, March 2003, Sino Biological Inc.) (influenza H3N2, Wyoming, March 2003). The experiment in a line: SPR imaging (IBIS MX96), antibody captured on anti-human-IgG chip, HA3 injected at 1 µg/ml, global 1:1 fit.

B1: AT10-004 (antibody, V domains shown)
VH: RASQSVSRYLA
VL: RASQSVSRYLA
B1: the Kd was 0.07 nM, the koff is 1e-06 s⁻¹ and the kon was determined as 14000 M⁻¹ s⁻¹.

A word on the Kd: it is a measure of binding affinity in units of concentration. What is called koff is the first-order rate constant of dissociation. As usually defined, the kon is a measure of how fast the partners come together.
